Measured values as given in patent publication US20210079109A1 (Regeneron, published 2021).

T1: human CD63 (human, UniProt P08962 2-238)
T1 construct: stably transfected in NIH3T3/hCD63; The cell line is named under assay; also called hCD63
T1 sequence: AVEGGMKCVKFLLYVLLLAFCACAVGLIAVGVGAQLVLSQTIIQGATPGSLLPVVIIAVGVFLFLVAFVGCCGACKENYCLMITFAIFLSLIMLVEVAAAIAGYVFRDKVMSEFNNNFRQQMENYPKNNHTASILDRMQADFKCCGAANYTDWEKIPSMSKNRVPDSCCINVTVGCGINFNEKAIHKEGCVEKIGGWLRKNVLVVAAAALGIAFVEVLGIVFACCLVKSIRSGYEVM


Experiments:
human CD63 [1] = target: T1, human CD63; test: imaging of stained T47D cells, 10 ug/mL antibody
Procedure: To stain, quadruplicate plates of cells were incubated with 10 μg/mL of anti-CD63 antibodies that was diluted in 2% FBS in PBS, without Calcium and Magnesium (Irving, Cat #9240) (staining buffer) for 30 minutes at 4° C. […] Two plates were immediately fixed and stained with 4% paraformaldehyde (PFA; ThermoFisher, Cat #28908)+5 uM DRAQ5 (ThermoFisher, Cat #62251) in PBS for 20 minutes (non-internalization plates). The remaining two plates were incubated with growth media at 37° C. for 2 hours followed by fixation and staining for 20 minutes using a solution of 4% PFA+5 μM DRAQ5 diluted in PBS (internalization plates). After fixation, all plates were washed once with PBS. One non-internalization plate and one internalization plate were incubated with an anti-Alexa Fluor 488 antibody (Regeneron) at 50 μg/mL in PBS overnight at 4° C. to quench surface Alexa Fluor 488 fluorescence. The remaining plates were incubated with PBS only. Confocal images were acquired on the Opera Phenix (Perkin Elmer) at 40× magnification. Harmony analysis software (Perkin Elmer) was utilized to identify DRAQ5-labeled cells and the total Alexa-Fluor 488 relative fluorescent units (RFU) per cell was determined. The total binding at 4° C. (RFU values of 4° C. unquenched wells), total binding at 37° C. (RFU values of 37° C. unquenched wells), the total internalized RFU, and the % Internalization were determined for each antibody as shown in Table 1. For all calculations, background fluorescence from 2nd Ab only control wells were subtracted from every well. Total internalized RFU was calculated as follows: Total RFU of 37° C. unquenched samples−Surface RFU at 37° C. Surface RFU is defined as unquenched RFU at 37° C.−quenched RFU at 37° C.)/QE. QE (quenching efficiency) is defined as: 1−(Total RFU of 4° C. quenched sample/Total RFU of 4° C. unquenched sample). The % Internalization was determined from the following formula: (Total internalized RFU at 37° C./Total RFU at 37° C.)*100.

human CD63 [2] = target: T1, human CD63; test: cell-based or functional assay
human CD63 [3] = target: T1, human CD63; test: ECL, LNCAP cells
Procedure: (§1) LNCAP cells were determined to have a lower human CD63 copy number than U87MG cells. Non-transfected NIH3T3 cells, which have no detectable expression of human CD63 by fluorescence activated cell sorting (FACS), were included as a negative control.
(§2) Briefly, cell lines were rinsed once in PBS buffer without Ca²⁺/Mg²⁺ and incubated for 10 minutes at 37° C. with Enzyme Free Cell Dissociation Solution (Millipore, Cat #S-004-C) to detach the cells. Cells were then washed once with PBS with Ca²⁺/Mg²⁺ and counted with a Cellometer™ Auto T4 cell counter (Nexcelom Bioscience, LLC). Approximately 2.0×10⁴ NIH3T3/hCD63, LNCAP, U87MG or NIH3T3 cells were seeded separately onto 96-well carbon electrode plates […]) and were then incubated for one hour at 37° C. Nonspecific binding sites were blocked with 2% BSA (w/v) in PBS with Ca²⁺/Mg²⁺ for one hour at room temperature (RT). Solutions containing anti-CD63 antibodies or isotype control antibodies at a range of concentrations (1.7 pM to 100 nM) in 0.5% BSA (w/v) in PBS with Ca²⁺/Mg²⁺, as well as control buffer alone, were then added in duplicate to the plate-bound NIH3T3/hCD63, LNCAP, U87MG or NIH3T3 cells and incubated for one hour at RT. Plates were subsequently washed to remove unbound antibodies using an AquaMax2000 plate washer with a cell washing head (MDS Analytical Technologies). […] Plates were washed and then incubated with Read Buffer (MSD, Cat #R92TD-2) according to the manufacturer's instructions. Luminescent signals were measured using a SECTOR Imager (MSD).

[4] = target: T2, recombinant human CD63 extracellular loop 2 expressed with a C-terminal human Fc tag (human); test: SPR Biacore, mAb captured, 37C
T2 construct: also called hCD63 EC loop 2-hFc; human CD63 EC loop 2-Fc
Procedure: (§3) Equilibrium dissociation constants (KD) for different CD63 (EC2) loop reagents binding to purified anti-CD63 monoclonal antibodies were determined using a real-time surface plasmon resonance based Biacore T200 biosensor or Biacore 2000 biosensor. All binding studies were performed in 10 mM HEPES, 150 mM NaCl, 3 mM EDTA, and 0.05% v/v Surfactant Tween-20, pH 7.4 (HBS-ET) running buffer at 25° C. and 37° C. The Biacore CMS sensor chip surface was first derivatized by amine coupling with either a rabbit anti-mouse Fc specific polyclonal antibody (GE Healthcare, Cat #BR100838) or an anti-human Fab kit (GE Healthcare, Cat #28958325) to capture anti-CD63 monoclonal antibodies. […] The association rate (Kₐ) and dissociation rate (kd) were determined by fitting the real-time binding sensorgrams to a 1:1 binding model with mass transport limitation using Scrubber 2.0c curve-fitting software. Binding dissociation equilibrium constant (KD) and dissociative half-life (t½) were calculated from the kinetic rates as: […]
(§4) Binding kinetics parameters for human CD63 EC loop 2 protein binding to different anti-CD63 monoclonal antibodies of the invention at 25° C. and 37° C. are shown in Tables 6 through 9.

[5] = target: T3, recombinant human CD63 extracellular loop 2 expressed with a C-terminal Myc-Myc-hexahistidine (human); test: SPR Biacore, mAb captured, 37C
T3 construct: also called hCD63 EC loop 2-MMH; human CD63 EC loop 2-MMH
Procedure: as §3, §4

human CD63 [6] = target: T1, human CD63; test: ECL, U87MG cells
Procedure: as §1, §2

[7] = target: T2, recombinant human CD63 extracellular …; test: SPR Biacore, mAb captured, 25C
Procedure: as §3, §4

[8] = target: T3, recombinant human CD63 extracellular …; test: SPR Biacore, mAb captured, 25C
Procedure: as §3, §4

human CD63 [9] = target: T1, human CD63; test: ECL, NIH3T3/hCD63 cells
Procedure: as §1, §2

T3 sequence (chain, as listed by the source limits assumed): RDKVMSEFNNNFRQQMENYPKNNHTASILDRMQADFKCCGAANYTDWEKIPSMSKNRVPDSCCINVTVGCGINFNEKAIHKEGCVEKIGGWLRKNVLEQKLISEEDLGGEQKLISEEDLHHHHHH
T2 sequence (chain, as listed by the source limits assumed): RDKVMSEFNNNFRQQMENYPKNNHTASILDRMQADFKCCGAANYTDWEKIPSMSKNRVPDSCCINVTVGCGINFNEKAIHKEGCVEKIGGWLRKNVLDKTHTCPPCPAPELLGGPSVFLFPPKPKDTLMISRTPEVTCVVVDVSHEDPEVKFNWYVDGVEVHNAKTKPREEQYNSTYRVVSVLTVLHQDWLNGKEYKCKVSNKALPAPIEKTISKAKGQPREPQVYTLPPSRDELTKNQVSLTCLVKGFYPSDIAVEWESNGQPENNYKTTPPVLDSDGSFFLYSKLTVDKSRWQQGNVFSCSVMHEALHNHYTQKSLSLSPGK

EC50 (human CD63 [3]) [nM] | binding ratio at 3.7 nM vs NIH3T3 (human CD63 [3]) [fold] | 100 nM Ag Bound (RU) [4] [RU] | Kd [4] [nM] | koff [4] [s⁻¹] | kon [4] [M⁻¹ s⁻¹] | t1/2 [4] [min] | 100 nM Ag Bound (RU) [5] [RU] | Kd [5] [nM] | koff [5] [s⁻¹] | kon [5] [M⁻¹ s⁻¹] | t1/2 [5] [min] | EC50 (human CD63 [6]) [nM] | binding ratio at 3.7 nM vs NIH3T3 (human CD63 [6]) [fold] | 100 nM Ag Bound (RU) [7] [RU] | Kd [7] [nM] | koff [7] [s⁻¹] | kon [7] [M⁻¹ s⁻¹] | t1/2 [7] [min] | 100 nM Ag Bound (RU) [8] [RU] | Binder | further results
– | – | – | – | – | – | – | – | – | – | – | – | – | – | – | – | – | – | – | – | H4H12450N (antibody, V domains shown) VH: QVQLQESGPKVVKPSETLSLTCTVSGGSISSYYWNWIRQSPGKGLEWIGYTKRGYTDYNPSLRSRVTISEDTSKNQFSLRISSVTAADTAVYYCAQMGWGSHAFDMWGQGTMVAVSS VL: not shown | Total RFU at 4C (human CD63 [1]): 2.1e+06 RFU; Total RFU at 37C (2 h) (human CD63 [1]): 2.08e+06 RFU; % Internalization, T47D cells (human CD63 [2]): 68.1%; Total Internalized RFU, T47D cells (human CD63 [2]): 1.42e+06 RFU
0.23 | 51 | 177 | 0.582 | 0.000445 | 765000 | 26 | 68 | 7.25 | 0.00324 | 447000 | 4 | 0.53 | 405 | 169 | 0.391 | 0.000199 | 510000 | 58 | 79 | H2M12392N (antibody, V domains shown, also called H2aM12392N) VH: QVQLVESGGGLVKPGGSLRLSCATSGFTFGDYYMNWFRQAPGKGLDWVSYISSSGSTRYYADSVRGRFTISRDNAKNSLYLQMNSLRAEDTAVYYCVRDLRYYYGMDVWGQGTTVTVSS VL: not shown | Kd [8]: 3.1 nM; koff [8]: 0.000922 s⁻¹; kon [8]: 298000 M⁻¹ s⁻¹; t1/2 [8]: 13 min; EC50 (human CD63 [9]): 0.4 nM; binding ratio at 3.7 nM vs NIH3T3 (human CD63 [9]): 608 fold
0.3 | 31 | 134 | 0.546 | 0.000495 | 907000 | 23 | 38 | 35.6 | 0.0149 | 419000 | 1 | 0.36 | 339 | 150 | 1.89 | 0.000991 | 523000 | 12 | 54 | H1M12390N (antibody, V domains shown) VH: QVHLVESGGGLVKPGGSLRLSCAASGFIFSDYYMSWIRQAPGKGLEWVSYIRGSGYNADSVQGRFTISRDNAKNSLFLQMNSLRAEDTAVYYCARGYSFGYGFFDYWGQGTLVTVSS VL: not shown | Kd [8]: 10.4 nM; koff [8]: 0.00336 s⁻¹; kon [8]: 323000 M⁻¹ s⁻¹; t1/2 [8]: 3 min; EC50 (human CD63 [9]): 0.48 nM; binding ratio at 3.7 nM vs NIH3T3 (human CD63 [9]): 559 fold
0.18 | 14 | 160 | 0.895 | 0.000777 | 868000 | 15 | 56 | 10.6 | 0.00591 | 559000 | 2 | 0.47 | 132 | 142 | 0.523 | 0.00036 | 688000 | 32 | 61 | H2M12454N (antibody, V domains shown, also called H2bM12454N) VH: QVQLVESGGGLVKPGGSLRLSCAVSGFTYTDYFMNWIRQAPGKGLEWVSYISNSGAIKYYADSVKGRFTISRDNAKNSLYLQMNGLRADDTAVYYCVRDPRSYYGFDYWGQGTLVTVSS VL: DIQMTQSPSSLSASVGDRVTITCRASQSISNFLNWYQQKPGKAPRLLIYGASNLQSGVPSRFSGGGSGTDFTLTISSLQPADFATYYCQQSFSNPPVTFGQGTRLEIN | Kd [8]: 4.89 nM; koff [8]: 0.00188 s⁻¹; kon [8]: 384000 M⁻¹ s⁻¹; t1/2 [8]: 6 min; EC50 (human CD63 [9]): 0.32 nM; binding ratio at 3.7 nM vs NIH3T3 (human CD63 [9]): 175 fold
0.29 | 5 | 133 | 2.05 | 0.0017 | 827000 | 7 | 44 | 40 | 0.0109 | 271000 | 1 | 0.64 | 47 | 121 | 1.66 | 0.000984 | 592000 | 12 | 48 | H2M12385N (antibody, V domains shown, also called H2bM12385N; H2bM12385) VH: QVQLVESGGGLVKPGGSLRLSCAASGFTFTDYFMNWIRQAPGKGLEWVSYISNSGAIKYQADSVKGRFTISRDNAKNSLYLQMNSLRADDTAVYYCVRDPRSYYGFDYWGQGTLVTVSS VL: DIQMTQSPSSLSASVGDRVTITCRASQSIRNFLNWYQQKPGKAPRLLIYAASSLQSGVPSRFSGGGSGTDFTLTISSLQPEDFATYYCQQSYSNPPITFGQGTRLEIK | Kd [8]: 10.3 nM; koff [8]: 0.00331 s⁻¹; kon [8]: 322000 M⁻¹ s⁻¹; t1/2 [8]: 3 min; EC50 (human CD63 [9]): 0.45 nM; binding ratio at 3.7 nM vs NIH3T3 (human CD63 [9]): 71 fold
55 | 5 | 116 | 14.5 | 0.0188 | 1.29e+06 | 1 | 3 | 1620 | 0.128 | 79400 | 0.1 | 13 | 61 | 198 | 10.1 | 0.00555 | 552000 | 2 | 8 | H4H11995P2 (antibody, V domains shown) VH: EVQLVESGGALVQPGRSLRLSCAASGFTFDDYAMHWVRQAPGKGLEWVSGISWNSGTMGYADSVKGRFTISRDNAKKSLYLQMNSLRAEDTALYYCGKGLLHQWEVLDYWGQGTLVTVSS VL: not shown | EC50 (human CD63 [9]): 5 nM; binding ratio at 3.7 nM vs NIH3T3 (human CD63 [9]): 212 fold
